Experimental data published in paper PMC9482650, “Quantitative fragmentomics allow affinity mapping of interactomes” (Nature Communications, 2022).

How the values were obtained:
Test in all cases: holdup assay
Conditions in all cases: plain residues with an end cap or a label only (N-terminal biotin on a linker: (peg)3)
[1] = target: CARD14, Q9BXL6
[2] = target: MAGI1_3, Q96QZ7
[3] = target: MAGI1_6, Q96QZ7
[4] = target: T1, MAGI2_1, Q86UL8
T1 sequence (Q86UL8 12-111, limits assumed, looked up): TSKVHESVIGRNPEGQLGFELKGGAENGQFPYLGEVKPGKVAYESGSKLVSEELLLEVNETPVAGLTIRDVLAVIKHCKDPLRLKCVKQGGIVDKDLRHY

[5] = target: MAGI3_6, Q5TCQ9
Chain of MAGI3_6, Q5TCQ9 (Q5TCQ9 1014-1103): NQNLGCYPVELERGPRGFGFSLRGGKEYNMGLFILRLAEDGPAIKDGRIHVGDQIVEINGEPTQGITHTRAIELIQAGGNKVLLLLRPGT

[6] = target: T2, MPDZ_7, O75970
T2 sequence (O75970 1146-1253, limits assumed, looked up): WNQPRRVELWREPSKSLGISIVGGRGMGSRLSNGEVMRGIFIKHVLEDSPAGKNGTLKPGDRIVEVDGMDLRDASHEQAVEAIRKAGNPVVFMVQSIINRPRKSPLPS

[7] = target: T3, MPP5, Q8N3R9
T3 sequence (Q8N3R9 251-346, limits assumed, looked up): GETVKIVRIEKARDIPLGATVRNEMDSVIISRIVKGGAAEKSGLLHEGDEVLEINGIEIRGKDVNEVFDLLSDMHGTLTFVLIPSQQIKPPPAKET

[8] = target: T4, NHERF3_2, Q5T2W1
T4 sequence (Q5T2W1 129-225, limits assumed, looked up): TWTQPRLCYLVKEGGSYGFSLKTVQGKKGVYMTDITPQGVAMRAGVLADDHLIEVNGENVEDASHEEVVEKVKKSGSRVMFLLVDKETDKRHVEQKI

[9] = target: T5, PDZD2_1, O15018
T5 sequence (O15018 80-192, limits assumed, looked up): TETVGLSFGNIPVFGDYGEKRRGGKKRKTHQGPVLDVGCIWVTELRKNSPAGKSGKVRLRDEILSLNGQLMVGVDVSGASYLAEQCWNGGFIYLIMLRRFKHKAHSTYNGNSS

[10] = target: T6, PDZD2_4, O15018
T6 sequence (O15018 723-823, limits assumed, looked up): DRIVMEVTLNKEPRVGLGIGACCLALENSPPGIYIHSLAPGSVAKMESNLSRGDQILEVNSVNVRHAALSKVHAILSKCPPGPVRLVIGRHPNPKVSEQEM

[11] = target: T7, PDZD7_2, Q9H5P4
T7 sequence (Q9H5P4 205-303, limits assumed, looked up): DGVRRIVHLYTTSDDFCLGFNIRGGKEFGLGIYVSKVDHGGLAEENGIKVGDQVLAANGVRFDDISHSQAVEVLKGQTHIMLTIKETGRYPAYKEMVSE

[12] = target: PDZD9, Q8IXQ8
Chain of PDZD9, Q8IXQ8 (Q8IXQ8 23-120): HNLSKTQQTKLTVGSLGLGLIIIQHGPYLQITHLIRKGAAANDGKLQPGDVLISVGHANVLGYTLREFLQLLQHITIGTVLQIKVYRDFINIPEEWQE

[13] = target: T8, PTPN13_5, Q12923
T8 sequence (Q12923 1877-1975, limits assumed, looked up): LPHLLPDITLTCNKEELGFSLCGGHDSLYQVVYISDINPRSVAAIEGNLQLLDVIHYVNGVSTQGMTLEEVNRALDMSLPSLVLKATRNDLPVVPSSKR

[14] = target: T9, RGS12, O14924
T9 sequence (O14924 17-108, limits assumed, looked up): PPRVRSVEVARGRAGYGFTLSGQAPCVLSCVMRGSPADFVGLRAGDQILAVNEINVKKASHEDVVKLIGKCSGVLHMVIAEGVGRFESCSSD

[15] = target: RGS3, P49796-9
Chain of RGS3, P49796-9 (P49796 other isoform, or with tags, fused parts or gaps): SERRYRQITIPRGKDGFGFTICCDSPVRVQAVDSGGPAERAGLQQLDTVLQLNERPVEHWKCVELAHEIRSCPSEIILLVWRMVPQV

[16] = target: T10, SHANK3, Q9BYB0
T10 sequence (Q9BYB0 641-750, limits assumed, looked up): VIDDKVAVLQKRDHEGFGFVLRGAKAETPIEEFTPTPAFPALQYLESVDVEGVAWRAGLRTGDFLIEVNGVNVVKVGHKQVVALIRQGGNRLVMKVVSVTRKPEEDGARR

[17] = target: T11, SHROOM4, Q9ULL8
T11 sequence (Q9ULL8 5-102, limits assumed, looked up): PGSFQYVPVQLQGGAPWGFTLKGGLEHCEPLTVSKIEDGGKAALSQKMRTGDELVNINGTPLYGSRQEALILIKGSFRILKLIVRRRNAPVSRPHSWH

[18] = target: T12, SNTB2, Q13425
T12 sequence (Q13425 110-208, limits assumed, looked up): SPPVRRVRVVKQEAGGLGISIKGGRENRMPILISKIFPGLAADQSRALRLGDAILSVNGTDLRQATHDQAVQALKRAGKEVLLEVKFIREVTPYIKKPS

[19] = target: T13, TJP3_1, O95049
T13 sequence (O95049 6-103, limits assumed, looked up): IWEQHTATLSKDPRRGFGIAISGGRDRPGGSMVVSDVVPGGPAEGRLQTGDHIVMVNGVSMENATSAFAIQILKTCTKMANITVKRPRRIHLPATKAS

[20] = target: T14, TJP3_2, O95049
T14 sequence (O95049 190-282, limits assumed, looked up): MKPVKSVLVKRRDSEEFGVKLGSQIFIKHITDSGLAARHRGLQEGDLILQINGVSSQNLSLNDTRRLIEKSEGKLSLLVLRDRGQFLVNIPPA

[21] = target: T15, USH1C_3, Q9Y6N9
T15 sequence (Q9Y6N9 447-547, limits assumed, looked up): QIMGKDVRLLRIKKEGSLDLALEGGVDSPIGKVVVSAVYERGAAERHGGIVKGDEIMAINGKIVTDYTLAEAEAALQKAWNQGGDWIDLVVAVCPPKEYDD

Measured: pKd

Chain of MAGI1_3, Q96QZ7 (Q96QZ7 638-725): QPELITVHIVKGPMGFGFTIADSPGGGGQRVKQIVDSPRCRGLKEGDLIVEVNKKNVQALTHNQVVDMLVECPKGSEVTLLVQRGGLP
Chain of MAGI1_6, Q96QZ7 (Q96QZ7 1146-1238): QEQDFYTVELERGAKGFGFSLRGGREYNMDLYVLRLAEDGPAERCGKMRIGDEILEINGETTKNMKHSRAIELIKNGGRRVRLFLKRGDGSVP
Chain of CARD14, Q9BXL6 (Q9BXL6 558-663): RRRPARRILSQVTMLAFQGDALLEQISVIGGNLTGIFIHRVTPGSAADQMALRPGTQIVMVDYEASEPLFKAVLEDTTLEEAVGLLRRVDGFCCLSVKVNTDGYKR

NLNSSEGVPDLLV [SARS-CoV-E, P59637]
below the threshold: all assays above
